To fix the notation:
B1: 10HNisT, deca-histidine tagged ABC transporter NisT (natural protein, Lactococcus lactis, UniProt Q03203 1-600, looked up)
chain: MDEVKEFTSKQFFYTLLTLPSTLKLIFQLEKRYAIYLIVLNAITAFVPLASLFIYQDLINSVLGSGRHLINIIIIYFIVQVITTVLGQLESYVSGKFDMRLSYSINMRLMRTTSSLELSDYEQADMYNIIEKVTQDSTYKPFQLFNAIIVELSSFISLLSSLFFIGTWNIGVAILLLIVPVLSLVLFLRVGQLEFLIQWQRASSERETWYIVYLLTHDFSFKEIKLNNISNYFIHKFGKLKKGFINQDLAIARKKTYFNIFLDFILNLINILTIFAMILSVRAGKLLIGNLVSLIQAISKINTYSQTMIQNIYIIYNTSLFMEQLFEFLKRESVVHKKIEDTEICNQHIGTVKVINLSYVYPNSNAFALKNINLSFEKGELTAIVGKNGSGKSTLVKIISGLYQPTMGIIQYDKMRSSLMPEEFYQKNISVLFQDFVKYELTIRENIGLSDLSSQWEDEKIIKVLDNLGLDFLKTNNQYVLDTQLGNWFQEGHQLSGGQWQKIALARTFFKKASIYILDEPSAALDPVAEKEIFDYFVALSENNISIFISHSLNAARKANKIVVMKDGQVEDVGSHDVLLRRCQYYQELYYSEQYEDNDE
notes: the nisT gene was amplified from genomic DNA of L. lactis NZ97000; 10HNisT is printed as 72.5 kDa (72.6 kDa in the methods), NisT as about 69 kDa; In the pull-down the detergent was CYMAL5; also called WT; source: L. lactis NZ9000 (pNZ-SV10HnisT), membranes solubilised with Fos-choline-16, purified (IMAC, SEC)
B2: NisC, nisin cyclase (enzyme, Lactococcus lactis, UniProt Q03202 1-418, looked up)
chain: MRIMMNKKNIKRNVEKIIAQWDERTRKNKENFDFGELTLSTGLPGIILMLAELKNKDNSKIYQKKIDNYIEYIVSKLSTYGLLTGSLYSGAAGIALSILHLREDDEKYKNLLDSLNRYIEYFVREKIEGFNLENITPPDYDVIEGLSGILSYLLLINDEQYDDLKILIINFLSNLTKENNGLISLYIKSENQMSQSESEMYPLGCLNMGLAHGLAGVGCILAYAHIKGYSNEASLSALQKIIFIYEKFELERKKQFLWKDGLVADELKKEKVIREASFIRDAWCYGGPGISLLYLYGGLALDNDYFVDKAEKILESAMQRKLGIDSYMICHGYSGLIEICSLFKRLLNTKKFDSYMEEFNVNSEQILEEYGDESGTGFLEGISGCILVLSKFEYSINFTYWRQALLLFDDFLKGGKRK
notes: Nisin biosynthesis protein NisC (cyclase), Lactococcus lactis; printed as about 48 kDa; source: expressed and purified as described previously (Mavaro 2011; Abts 2013; Reiners 2017)

In one test the target is T1, NisB, nisin dehydratase (Lactococcus lactis, UniProt P20103 1-993).
T1 construct: Nisin biosynthesis protein NisB (dehydratase), Lactococcus lactis; printed as about 117 kDa; source: expressed and purified as described previously (Mavaro 2011; Abts 2013; Reiners 2017)
T1 sequence (looked up): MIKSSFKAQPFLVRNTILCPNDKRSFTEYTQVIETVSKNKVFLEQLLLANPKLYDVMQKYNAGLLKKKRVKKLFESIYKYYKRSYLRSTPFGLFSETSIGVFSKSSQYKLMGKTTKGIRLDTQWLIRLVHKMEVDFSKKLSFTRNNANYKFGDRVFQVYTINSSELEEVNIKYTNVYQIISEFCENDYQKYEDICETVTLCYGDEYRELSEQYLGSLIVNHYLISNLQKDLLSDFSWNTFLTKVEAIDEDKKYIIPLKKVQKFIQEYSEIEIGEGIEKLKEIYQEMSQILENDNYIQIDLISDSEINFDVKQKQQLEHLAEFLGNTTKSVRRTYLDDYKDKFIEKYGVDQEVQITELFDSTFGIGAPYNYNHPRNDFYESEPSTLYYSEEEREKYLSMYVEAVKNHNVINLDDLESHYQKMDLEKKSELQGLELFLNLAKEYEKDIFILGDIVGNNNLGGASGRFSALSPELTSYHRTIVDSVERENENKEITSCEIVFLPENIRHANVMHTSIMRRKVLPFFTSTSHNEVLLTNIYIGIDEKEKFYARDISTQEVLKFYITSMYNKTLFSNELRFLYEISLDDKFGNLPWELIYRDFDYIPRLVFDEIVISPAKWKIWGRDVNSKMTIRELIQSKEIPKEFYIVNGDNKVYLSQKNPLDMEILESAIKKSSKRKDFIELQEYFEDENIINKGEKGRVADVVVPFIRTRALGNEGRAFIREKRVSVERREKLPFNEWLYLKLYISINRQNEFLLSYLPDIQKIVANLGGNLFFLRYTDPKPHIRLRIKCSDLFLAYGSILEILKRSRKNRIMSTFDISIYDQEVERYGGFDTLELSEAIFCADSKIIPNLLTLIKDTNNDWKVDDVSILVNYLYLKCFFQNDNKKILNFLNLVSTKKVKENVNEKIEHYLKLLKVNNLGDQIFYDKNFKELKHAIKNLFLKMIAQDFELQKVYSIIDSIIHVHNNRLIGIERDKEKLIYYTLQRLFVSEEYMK
The test is described as follows: pull-down; about 15 ug 10HNisT immobilised on Ni-NTA magnetic beads; 10 uM NisB, NisC or both, no substrate; 1 h at 30 C; 25 mM Tris-HCl pH 7.5, 50 mM KCl, 0.4% CYMAL5, 400 mM glutamate, 5 mM MgATP; six washes, elution with 50 mM EDTA, Western blot. The conditions noted are these: both partners purified. A general note: A western blot detects proteins with antibodies after separation by electrophoresis.

For test [1], the target named is B1. The test is described as follows: pull-down; as a1, with NisB and NisC together (1:1), pre-incubated 15 min on ice with mNisA (20x molar excess to NisT). The conditions noted are these: both partners purified.

Take B1: in the test with NisB, nisin dehydratase, the binding result is reported as “binds”.
With B2, the binding result in test [1] is “binds”.

The values above are taken from paper doi:10.1101/839423, “Mechanism of the secretion of the lanthipeptide nisin” (bioRxiv, 2019).
